9 molecules from PMC8575264 can be followed below.

Like-named read-outs stand apart in the source and are kept apart here.

What all share (test): fluorescence anisotropy
On the technique in general: Polarisation of emitted light reports the rotation of a fluorescent probe.

Series [1] deals with T1, holo-CPSF30-FL (Bos taurus, UniProt O19137 1-243).
Series [2] addresses T2, holo-CPSF30-5F (UniProt O19137 35-169).
Series [3] concerns the target Zn(II)-CPSF30-F2F3 (UniProt O19137).
For series [4], the target named is T1, holo-CPSF30-FL. The source holds these as a separate data set.
The target in series [5] is T2, holo-CPSF30-5F. This is another data set of the same source.
Series [6] has as its target T3, Zn(II)-CPSF30-ZK (UniProt O19137).
T3 chain: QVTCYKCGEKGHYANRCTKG

For series [7], the target named is T1, holo-CPSF30-FL. The source holds these as a separate data set.
Series [8] addresses T1, holo-CPSF30-FL. This is another data set of the same source.

B1: ΔA1,2,4,5 (ssRNA)
RNA: CACUUUAAUCCUCCAAAUCAUGCU
Consider B1, for which the “apparent K (half saturation)” value in series [1] was found to be 275 nM. The binding result in series [2] was “no binding”.

B2: AAU9 (ssRNA)
RNA: AAUAAUAAU
With B2, the binding result in series [3] was “no binding”.

B3: α-syn30 (ssRNA)
RNA: UCUCACUUUAAUAAUAAAAAUCAUGCUUAU
Take B3: the results for the “apparent K (half saturation)” value in series [4] and in series [5] were 110 nM and 178 nM, respectively. Moreover, the binding result in series [3] was “no binding”.

B4: AAU12 (ssRNA)
RNA: AAUAAUAAUAAU
For the molecule B4, in series [3], the binding result is “no binding”.

B5: PolyU24 (ssRNA)
RNA: UUUUUUUUUUUUUUUUUUUUUUUU
On to B5, for which the binding result in series [6] and in series [2] was “no binding” throughout.

B6: PolyC24 (ssRNA)
RNA: CACUUUAAUCCCCCCAAUCAUGCU
Turning to B6, the binding result in series [7] is “no binding”.

B7: ARE11 (ssRNA)
RNA: UUUAUUUAUUU
With B7, the binding result in series [3] and in series [6] was “no binding” throughout.

B8: AAU24 (ssRNA)
RNA: AAUAAUAAUAAUAAUAAUAAUAAU
As for B8, the binding result in series [3] was “no binding”.

B9: α-syn24 (ssRNA)
RNA: CACUUUAAUAAUAAAAAUCAUGCU
Take B9: in series [3], the binding result is “no binding”. For the same molecule, the “apparent K (half saturation)” value in series [8] was found to be 110 nM.
